Test in all cases: fluorescence polarisation
In experiment [1] the target is GLhelix-4 with Trp 534 mutated to alanine (UniProt O08773).
Experiment [2] has as its target GLhelix-4, redesigned RGS14 GoLoco motif peptide (UniProt O08773).
Experiment [3] addresses heterotrimeric G-protein alpha subunit Gαi1 in its inactive, GDP-complexed state (UniProt P63096 30-354).

The Kd is the free concentration of one partner at which half of the binding sites on the other are occupied at equilibrium, for simple one-to-one binding. A high value points to lower affinity.

Chain of heterotrimeric G-protein alpha subunit Gαi1 in its inactive, GDP-complexed state (UniProt P63096 30-354) (P63096 30-354, one chain of several): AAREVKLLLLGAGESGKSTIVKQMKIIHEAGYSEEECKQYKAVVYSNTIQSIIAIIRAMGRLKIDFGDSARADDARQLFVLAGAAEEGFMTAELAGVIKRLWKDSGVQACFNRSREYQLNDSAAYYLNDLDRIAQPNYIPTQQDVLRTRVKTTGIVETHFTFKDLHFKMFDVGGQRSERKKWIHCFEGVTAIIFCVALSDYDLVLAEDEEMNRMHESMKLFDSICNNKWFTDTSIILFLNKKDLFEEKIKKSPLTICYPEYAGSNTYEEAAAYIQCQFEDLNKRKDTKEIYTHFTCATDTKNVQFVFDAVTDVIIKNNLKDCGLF

In the case of “heterotrimeric G-protein alpha subunit Gαi1 in its inactive, GDP-complexed state (from UniProt P63096 30-354) (natural protein)”, the dissociation constant Kd in experiment [1] worked out at 1400 nM; in experiment [2], 810 nM.

B1: RGS14 GoLoco motif peptide (wildtype, 36 residues) (peptide)
peptide: DIEGLVELLNRVQSSGAHDQRGLLRKEDLVLPEFLQ
In turn, B1 yielded a Kd in experiment [3] of 95 nM.
